The values that follow come from the Immune Epitope Database (IEDB).

This test deals with HLA-A*02:01. Kind of test: IEDB peptide-MHC binding, purified MHC/competitive/radioactivity; ≥ and ≤ were set here for values at or beyond the usual limits of such assays. The note with it: source organism: Trypanosoma cruzi.
On to IANYNFTLV, for which the IC50 (as a rule, the concentration that gives 50% inhibition) is 29600 nM. Next, FLSHDFTLV: 0.46 nM; LLGLWGLATA: 24 nM. The same measure for FANYNFTLV: 0.47 nM. The same measure for GLLPSLLLLL: 3.1 nM; for ELLRPTTLV: 2410 nM; for FVNHRFTLV: 304 nM. On to FANYNFTLL, for which the half-inhibitory concentration (IC50) is 1500 nM.

With FVNYNFTLV, the half-inhibitory concentration (IC50) was 0.25 nM. The same measure for FANYKFTLV: 49 nM; for FVSCDFTIV: 30 nM.

Regarding RLLPSLLLLL, the concentration for half-maximal inhibition (IC50) stood at 0.8 nM.

In the case of SLSHYFTLVF, the 50% inhibitory concentration (IC50) amounted to 1.6 nM. Next, RVSRPTTVV: 2490 nM; FANNKFTLV: 116 nM; FVDYNFSLV: 1.1 nM.

For FLSHNFTLVF, the IC50 came to 0.61 nM. For the sequence FANHDFTLV, the IC50 was 101 nM.
